Three proteins from patent US12305177B2, “Methods and platforms for sustainable high yield terpenoid production” (Purdue Research Foundation, priority 2019, dated 2025) can be followed below.

Substrate in data set [1]: CC(C)=CCC/C(C)=C/CC/C(C)=C/CO[P@@](=O)(O)OP(=O)(O)O
The data set can be described thus: purified protein, by the assay type. Particulars: 100 mM TAPS pH 8.5, 10 mM MgCl2, 37° C., means ± SD, n = 3, pH 8.5, 37.0 °C.

Substrate in data set [2]: CC(C)=CCOP(=O)(O)OP(=O)(O)O
The data set can be described thus: purified protein, by the assay type. The settings on record: 100 mM TAPS pH 8.5, 10 mM MgCl2, 37° C., means ± SD, n = 3, pH 8.5, 37.0 °C.

Substrate in data set [3]: C=C(C)CCOP(=O)(O)O
The data set can be described thus: purified protein, by the assay type. Particulars: other: substrate of N. tabacum IPK; pH 7.5, 30° C.; pH 7.5; 30.0 °C.

Substrate in data set [4]: CC(C)=CCOP(=O)(O)O
The data set can be described thus: NtIPK kinetics, lactate dehydrogenase/pyruvate kinase coupled assay. It is filed as biochemical. Particulars: other: substrate of N. tabacum IPK, pH 7.5, 30° C.

Substrate in data set [5]: CC(C)=CCC/C(C)=C/COP(=O)(O)O
The description is as above. Format: biochemical. Particulars: other: substrate of N. tabacum IPK, pH 7.5, 30° C.

B1: A. thaliana Nudx3 (Arabidopsis thaliana) (protein)
chain: MAEEHFDVLTKSGEKTGVSKPRGEVHRDGDYHRAVHVWIFVETTQQLLLQLRSDDKDSWPGQWDISSAGHISAGDTSLLSAQRELEEELGVKLPKDAFEKIFVFLQECVTNDGKFINNEFNDVYLVTILHPIPLEAFTLQKEEVSAVKYVPYEEYRNFLSKEDPAYVPYDVNGEYGKLFDIIRQRCQVNTEARSLSLQKQLQRYSPVTLEAKLTELSEADQKALGLIVKAAKIMDDIFYEQVWNSNPALRDWLKDHANASKLDKLKWDYFTINKSPWSSLDENEAFLSTADSAVKLLPGATKAIAGWKGLEYRAAFPVTKPPGANFYPPDMDKMEFTLWLNGLTEEQKHAATGFFSVIKRRSEANLDASDHLASSTKKLPDSNSDLYSIPYSEIYRPFLKKASEFLQKAGDLVSSPSLKKLLHSKAEAFLSNEYYESDIAWMDLDSKLDITIGPYETYEDEIFGYKATFETFIGIRDDKATADLKLFGDNLKLLEDNLPLESVYKSTDVSAAPIRVIQLIYNSGDVKGPQTVAYNLPNDEKIVKDRGTSMVMLKNVQEAKFEHILKPIAEITISKEQRGLVDFDSFFTHTICHECCHGIGPHTITLPGGQTSTVRKELQEVHSAMEEAKADIVGLWALKFLITKGLLSKSMVESMYVSFLAGCFRSIRFGLTEAHGKGQALQFNYLYEKGAFVFHEDSTFSVDFAKIEGAVESLSHEILTIQGKGDKNAATLLLNKYCTITGPLKTALENLERVKVPVDISPTFPLAEALMN
Regarding B1, in data set [1] (other: substrate of AtNudx3), the Km stood at 58 ± 10 µM, the kcat is 3.3 ± 0.3 s⁻¹ and the specificity constant (kcat/Km) is on record as 5.7 × 10^4 ± 0.5 M^−1 s^−1. Besides, in data set [2] (other: substrate of AtNudx3), the Km turned out to be 44 ± 8 µM, the kcat was determined as 7.1 ± 0.3 s⁻¹ and the kcat/Km is recorded as 1.6 × 10^5 ± 0.3 M^−1 s^−1.

B2: A. thaliana Nudx1 (Arabidopsis thaliana) (protein)
chain: MSTGEAIPRVAVVVFILNGNSILLGRRRSSIGNSTFALPGGHLEFGESFEECAAREVMEETGLKIEKMKLLTVTNNVFKEAPTPSHYVSVSIRAVLVDPSQEPKNMEPEKCEGWDWYDWENLPKPLFWPLEKLFGSGFNPFTHGGGD
As to B2, in data set [1] (other: substrate of AtNudx1), the Km was determined as 8.7 ± 1.6 µM, the kcat amounted to 1.35 ± 0.06 s⁻¹ and the kcat/Km is reported as 1.6 × 10^5 ± 0.3 M^−1 s^−1. In data set [2] (other: substrate of AtNudx1), the Km was 10.7 ± 1.8 µM, the kcat is 1.7 ± 0.07 s⁻¹ and the kcat/Km is 1.6 × 10^5 ± 0.3 M^−1 s^−1.

B3: N. tabacum IPK (Nicotiana tabacum) (protein)
chain: MEQNKASAPVPPTKRVRCIVKLGGAAITCKNKLETIDEENLTEVSSQLRQALIPNSDSAKILGMDWSKRPGQSEPPSFVDEFSDQPVADSESFIVVHGAGSFGHFQASKSGVHKGGLSRPLVKAGFVATRISVTSLNLEIVRALAREGIPSIGMSPFSCGWSTCQRNMTEADISMVIKAIDAGFIPVLHGDAVLDTLQECTILSGDVIIRHLAAELKPEFVVFLTDVLGVYDRPPVEPGAVLIREIAVREDGSWSVVKPRLEDTSKPVEFTVAAHDTTGGMVTKITEAAMIAKLGIDVYITKVGAGRNGPLSESPEWNLERQHT
For the protein B3, in data set [3], the Km turned out to be 4.0 ± 1.5 µM, the kcat was found to be 0.93 s⁻¹ and the kcat/Km turned out to be 230000 M⁻¹ s⁻¹. In addition, in data set [4], the Km was found to be 8.5 ± 2.3 µM, the turnover number (kcat) was determined as 1.2 ± 0.06 s⁻¹ and the kcat/Km came out at 140000 M⁻¹ s⁻¹. In data set [5], the Km is 100 ± 60 µM, the kcat was 0.0017 ± 0.0002 s⁻¹ and the kcat/Km stood at 17 M⁻¹ s⁻¹.
